Source: patent CN1421459A

Tests used:
[1] = biological target: 人T细胞CD3 (human); experiment: cell-based or functional assay
[2] = biological target: 人T细胞CD3 (human); experiment: fluorescence staining and flow cytometry on CD3-positive HPBLL or Jurkat cells, compared with mOKT3 (Fig. 3)
[3] = biological target: 人T细胞CD3 (human); experiment: fluorescence staining, flow cytometry, antibody 1 μg/ml; cells not named
[4] = biological target: 人T细胞CD3 (human); experiment: fluorescence staining, flow cytometry, antibody 10 μg/ml; cells not named
[5] = biological target: 人T细胞CD3 (human); experiment: fluorescence staining, flow cytometry, antibody 0.1 μg/ml; cells not named
[6] = biological target: 人T细胞CD3 (human); experiment: flow cytometry on human PBMC, unlabelled huGD3 competing with saturating FITC-mGD3; calculated by the formula [X]-[mGD3]=(1/Kx)-(1/Ka)

Sequence of 人T细胞CD3 (human) (P07766 23-207, chain 1 of 4): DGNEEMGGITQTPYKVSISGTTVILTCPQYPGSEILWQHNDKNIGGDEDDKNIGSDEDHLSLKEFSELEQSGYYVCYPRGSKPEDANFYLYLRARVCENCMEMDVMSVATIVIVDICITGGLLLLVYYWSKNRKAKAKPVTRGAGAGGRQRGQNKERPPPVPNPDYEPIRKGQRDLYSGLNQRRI
Sequence of 人T细胞CD3 (human) (P09693 23-182, chain 2 of 4, further chain): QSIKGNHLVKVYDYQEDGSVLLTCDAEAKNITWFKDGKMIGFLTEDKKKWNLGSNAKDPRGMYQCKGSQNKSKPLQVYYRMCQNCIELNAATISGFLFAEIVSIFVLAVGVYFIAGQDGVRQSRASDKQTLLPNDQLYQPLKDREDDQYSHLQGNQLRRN
Sequence of 人T细胞CD3 (human) (P04234 22-171, chain 3 of 4, further chain): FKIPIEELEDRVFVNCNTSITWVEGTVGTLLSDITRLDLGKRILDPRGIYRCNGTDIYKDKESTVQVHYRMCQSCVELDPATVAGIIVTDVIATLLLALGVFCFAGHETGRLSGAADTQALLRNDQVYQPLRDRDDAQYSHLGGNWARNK
Sequence of 人T细胞CD3 (human) (P20963 22-164, chain 4 of 4, further chain): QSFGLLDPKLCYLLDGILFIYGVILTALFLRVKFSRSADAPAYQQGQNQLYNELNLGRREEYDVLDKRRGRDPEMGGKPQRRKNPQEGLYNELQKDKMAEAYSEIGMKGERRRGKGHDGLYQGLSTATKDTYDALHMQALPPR

CD3调变(%), antibody 10^1 ng/ml, human PBMC, 37°C 24 h [1]: 13.6%
CD3调变(%), antibody 10^2 ng/ml, human PBMC, 37°C 24 h [1]: 56.9%
CD3调变(%), antibody 10^3 ng/ml, human PBMC, 37°C 24 h [1]: 70%
CD3调变(%), antibody 10^4 ng/ml, human PBMC, 37°C 24 h [1]: 85.4%
CD3调变(%), antibody 10^5 ng/ml, human PBMC, 37°C 24 h [1]: 85.6%
CD3调变(%), antibody 10^-1 ng/ml, human PBMC, 37°C 24 h [1]: 9.52%
CD3调变(%), antibody column printed '10' (probably 10^0) ng/ml, human PBMC, 37°C 24 h [1]: 13.2%
亲和力 relative to mOKT3 (orders of magnitude) [2]: 2 数量级
MFI [3]: 76 MFI
MFI [4]: 97 MFI
MFI [5]: 55 MFI
Ka [6]: 1.6e+09 M⁻¹
B1: 人源化抗体huGD3 (antibody, human IgG1, V domains shown)
VH: QVQLVQSGGGVVQPGRSLRLSCKASGYTFTSYTMHWVRQAPGKGLEWIGYINPSSGYTKYNQKFKDRFTISADNSKSTAFLQMDSLRPEDTAVYYCARWQDYDVYFDYWGQGTPVTVSS
VL: DIVLTQSPSSLSASVGDRVTITCRASSSVSYMHWYQQTPGKAPKPWIYATSNLASGVPSRFSGSGSGTDYTFTISSLQPEDIATYYCQQWSSNPPTFGQGTKLQITR
